These results are taken from PMC6540616.

What all share (assay): DHFR protein complementation assay (yeast growth)
Common to all, as to settings: MTX-containing media relative to MTX-free media; read off a plot

Assay [1] addresses caskin1 SAM fused to DHFR F3 (UniProt Q6P9K8).
Assay [2] deals with PTPσ full-length (FL) fused to DHFR F1-2, wild type.
Assay [3] has as its target trio IgPSK fused to DHFR F3.

Sequence of UniProt Q6P9K8 (Q6P9K8 344-636): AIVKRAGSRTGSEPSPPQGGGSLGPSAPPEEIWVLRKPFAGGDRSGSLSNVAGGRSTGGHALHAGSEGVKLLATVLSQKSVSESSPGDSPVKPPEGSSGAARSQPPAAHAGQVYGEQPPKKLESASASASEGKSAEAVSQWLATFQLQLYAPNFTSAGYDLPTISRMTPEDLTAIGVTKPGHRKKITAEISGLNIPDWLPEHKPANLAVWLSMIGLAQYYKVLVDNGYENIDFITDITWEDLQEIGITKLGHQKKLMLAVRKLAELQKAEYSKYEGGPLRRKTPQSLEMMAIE

In turn, “PTPσ full-length (FL) fused to DHFR F1-2, wild type EGFID” displayed an other: interaction score in assay [1] of -0.11.

For the substance “PTPσ full-length (FL) fused to DHFR F1-2, wild type QFG”, the other: interaction score in assay [2] came to 0.8.

Turning to “PTPσ intracellular region (ICR) fused to DHFR F1-2, wild type EGFID”, in assay [3], the other: interaction score came out at 0.93.
